Laboratory results: IntAct's records for PubMed 20129058

B1: Replicative helicase loader DnaC (Escherichia coli (strain K12)), P0AEF0 (parent)
chain: MKNVGDLMQRLQKMMPAHIKPAFKTGEELLAWQKEQGAIRSAALERENRAMKMQRTFNRSGIRPLHQNCSFENYRVECEGQMNALSKARQYVEEFDGNIASFIFSGKPGTGKNHLAAAICNELLLRGKSVLIITVADIMSAMKDTFRNSGTSEEQLLNDLSNVDLLVIDEIGVQTESKYEKVIINQIVDRRSSSKRPTGMLTNSNMEEMTKLLGERVMDRMRLGNSLWVIFNWDSYRSRVTGKEY

Variants of: B1
Details: with dnab_ecoli dnaB

effect of a mutation on the interaction	Variant
disrupting interaction	L11Q
